Experimental data taken from PMC9692666, “The Inhibitory Effects and Cytotoxic Activities of the Stem Extract of Sarracenia purpurea against Melanoma Cells and the SsbA Protein” (Plants, 2022).
Where two headings read alike, the source gives them in different places.

Columns and labels:
[1] = target: T1, SaSsbA (Staphylococcus aureus, UniProt A0A0D1JHQ1); assay: EMSA inhibition of ssDNA binding
T1 construct: gene ssb; tetramer in crystal
T1 sequence (A0A0D1JHQ1 1-167): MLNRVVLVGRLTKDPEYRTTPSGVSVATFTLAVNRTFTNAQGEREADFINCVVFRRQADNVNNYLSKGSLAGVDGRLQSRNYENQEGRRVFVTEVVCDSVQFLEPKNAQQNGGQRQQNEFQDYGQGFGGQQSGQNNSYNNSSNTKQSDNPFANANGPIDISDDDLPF

[2] = target: T2, SaSsbA (Staphylococcus aureus) (UniProt A0A0D1JHQ1); assay: EMSA; details: EMSA: 40 mM Tris-HCl pH 7.5, 50 mM NaCl, 37 C, 60 min, 30 fmol/uL DNA (30 nM); 8% native PAGE in TBE
T2 sequence: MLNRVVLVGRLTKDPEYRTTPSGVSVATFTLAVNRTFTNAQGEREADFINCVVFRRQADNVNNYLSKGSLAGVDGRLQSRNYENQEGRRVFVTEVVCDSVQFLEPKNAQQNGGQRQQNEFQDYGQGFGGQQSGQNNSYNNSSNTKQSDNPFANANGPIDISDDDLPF

[3] = target: T3, SaSsbA (Staphylococcus aureus, UniProt A0A0D1JHQ1 1-167); assay: EMSA; no shift up to 10 uM protein; EMSA: 40 mM Tris-HCl pH 7.5, 50 mM NaCl, 37 C, 60 min, 30 fmol/uL DNA (30 nM); 8% native PAGE in TBE; details: protein: recombinant; chain copies: 4; label: biotin on PS4 (strand 1); blunt
[4] = target: T3, SaSsbA; assay: EMSA; EMSA: 40 mM Tris-HCl pH 7.5, 50 mM NaCl, 37 C, 60 min, 30 fmol/uL DNA (30 nM); 8% native PAGE in TBE; details: protein: recombinant; chain copies: 4; label: 5' biotin; single strand

O=C1c2c(O)cc(O)cc2O[C@H](c2ccc(O)cc2)[C@H]1O [dihydrokaempferol]
IC50 ([1]; read-out: IC50): 750 ± 62 µM

CCCGAATTCGGATAGCTCGGTACCCTTTTTTTTTTTTTTTTTTTTTTTTT / GGGTACCGAGCTATCCGAATTCGGG [PS4/PS3-3'-dT25]
K half [2]: 940 nM

O=c1c(O)c(-c2cc(O)c(O)c(O)c2)oc2cc(O)cc(O)c12 [myricetin]
IC50 ([1]; read-out: no inhibition at 300 μM): > 300 µM

O=C1c2c(O)cc(O)cc2O[C@H](c2ccc(O)c(O)c2)[C@H]1O [dihydroquercetin]
IC50 ([1]; read-out: no inhibition at 1000 μM): > 1000 µM

B1: PS4/PS3 (dsDNA)
DNA 1: GGGTACCGAGCTATCCGAATTCGGG
DNA 2: CCCGAATTCGGATAGCTCGGTACCC
binding result [3]: no binding

TTTTTTTTTTTTTTTTTTTTTTTTTTTTTT (ssDNA) [dT30]
apparent K (half saturation) [4]: 460 ± 30 nM

TTTTTTTTTTTTTTTTTTTTTTTTTTTTTTTTTTT (ssDNA) [dT35]
apparent K (half saturation) [4]: 360 ± 20 nM

TTTTTTTTTTTTTTTTTTTT (ssDNA) [dT20]
apparent K (half saturation) [4]: 1770 ± 110 nM

B2: dT59 (ssDNA)
DNA: TTTTTTTTTTTTTTTTTTTTTTTTTTTTTTTTTTTTTTTTTTTTTTTTTTTTTTTTTTT
apparent K (half saturation) [4]: 240 ± 10 nM
